Changes are numbered by the printed parent chain. In names and notes the source's numbering stands.
T1: cynomolgus monkey FcγRIIa2 extracellular domain with C-terminal His-tag (cynomolgus monkey)
T1 construct: Expressed in FreeStyle 293 cells and purified; also called cyno FcγRIIa2; cynoFcgRIIa2; not shown: C-terminal His-tag
T1 chain: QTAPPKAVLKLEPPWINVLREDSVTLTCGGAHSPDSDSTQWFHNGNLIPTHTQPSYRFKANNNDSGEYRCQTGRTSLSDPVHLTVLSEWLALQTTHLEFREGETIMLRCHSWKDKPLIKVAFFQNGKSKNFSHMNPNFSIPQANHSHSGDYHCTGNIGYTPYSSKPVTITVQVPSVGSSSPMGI

T2: human FcγRIIb extracellular domain with C-terminal His-tag (human, UniProt P31994 43-217)
T2 construct: Expressed in FreeStyle 293 cells and purified; also called humanFcgRIIb; not shown: C-terminal His-tag
T2 sequence: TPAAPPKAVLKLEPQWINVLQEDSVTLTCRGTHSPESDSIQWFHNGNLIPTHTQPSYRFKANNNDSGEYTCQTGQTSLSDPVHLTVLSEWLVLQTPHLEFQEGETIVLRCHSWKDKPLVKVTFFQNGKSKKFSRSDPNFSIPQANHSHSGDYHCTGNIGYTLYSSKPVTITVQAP

T3: human FcγRIIaH extracellular domain with C-terminal His-tag (human, UniProt P12318 34-217)
T3 construct: Expressed in FreeStyle 293 cells and purified; also called human FcγRIIa (type H); FcgRIIaH; not shown: C-terminal His-tag
T3 sequence: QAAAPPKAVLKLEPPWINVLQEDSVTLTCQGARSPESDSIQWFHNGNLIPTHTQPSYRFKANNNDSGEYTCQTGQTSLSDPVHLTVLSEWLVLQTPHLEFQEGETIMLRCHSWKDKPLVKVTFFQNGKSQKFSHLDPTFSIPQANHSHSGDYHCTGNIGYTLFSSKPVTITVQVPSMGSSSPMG

T4: human FcγRIIaR extracellular domain with C-terminal His-tag (human, UniProt P12318 34-217)
T4 construct: Expressed in FreeStyle 293 cells and purified; also called human FcγRIIa (type R); FcgRIIaR; not shown: C-terminal His-tag
T4 chain: T3 sequence with H134R

T5: cynomolgus monkey FcγRIIIaS extracellular domain with C-terminal His-tag (cynomolgus monkey, UniProt Q8SPW2 21-206 at identity 1.00))
T5 construct: Expressed in FreeStyle 293 cells and purified; also called cyno FcγRIIIaS; cynoFcγRIIIaS; not shown: C-terminal His-tag
T5 chain: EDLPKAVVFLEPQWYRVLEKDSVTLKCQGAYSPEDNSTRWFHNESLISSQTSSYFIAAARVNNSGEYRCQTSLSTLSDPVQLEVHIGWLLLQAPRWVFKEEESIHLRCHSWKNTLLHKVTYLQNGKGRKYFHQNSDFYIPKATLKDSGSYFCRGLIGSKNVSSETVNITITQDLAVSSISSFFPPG

T6: cynomolgus monkey FcγRIIb extracellular domain with C-terminal His-tag (cynomolgus monkey)
T6 construct: Expressed in FreeStyle 293 cells and purified; also called cyno FcγRIIb; cynoFcγRIIb; not shown: C-terminal His-tag
T6 chain: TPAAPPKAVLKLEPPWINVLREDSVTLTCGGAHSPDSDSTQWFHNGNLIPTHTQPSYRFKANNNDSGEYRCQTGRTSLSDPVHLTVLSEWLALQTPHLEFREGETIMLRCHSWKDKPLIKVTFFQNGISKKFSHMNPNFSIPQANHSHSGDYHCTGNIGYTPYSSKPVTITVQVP

T7: cynomolgus monkey FcγRIIa3 extracellular domain with C-terminal His-tag (cynomolgus monkey)
T7 construct: Expressed in FreeStyle 293 cells and purified; also called cyno FcγRIIa3; cynoFcgRIIa3; not shown: C-terminal His-tag
T7 chain: T1 chain with K127I, N130K, H133P, Q142R

T8: cynomolgus monkey FcγRIIa1 extracellular domain with C-terminal His-tag (cynomolgus monkey)
T8 construct: Expressed in FreeStyle 293 cells and purified; also called cyno FcγRIIa1; cynoFcgRIIa1; not shown: C-terminal His-tag
T8 chain: T1 chain with T95P, A121T, K127I, S128A, N130K, N135D, Q142R

B1: M103205H795-MY212 / M103202L889-SK1 (antibody, human IgG1, kappa)
heavy: QVTLKESGPVLVKPTETLTLTCTVSGIDLSHDDISWVRQAPGKGLEWVGIISYAGSTYYASWAKGRLTISKDTSKNQVVLTMTNMDPVDTATYYCARGVPAYSHGGDLWGQGTLVTVSSASTKGPSVFPLAPSSKSTSGGTAALGCLVKDYFPEPVTVSWNSGALTSGVHTFPAVLQSSGLYSLSSVVTVPSSSLGTQTYICNVNHKPSNTKVDKKVEPKSCDKTHTCPPCPAPELLNGPVVFLFPPKPKDTLMISRTPEVTCVVVDVSDEDPEVKFNWYVDGVEVHNAKTKPREELYNSTYRVVSVLTVLHQDWLNGKEYKCKVSNTALPKPIEKTISKAKGQPREPQVYTLPPSREEMTKNQVSLTCLVKGFYPSDIAVEWESNGQPENNYKTTPPVLDSDGSFFLYSKLTVDKSRWQQGNVFSCSVMHEALHNHYTQKSLSLSP
light: DIVMTQSPATLSLSPGERATLSCTSSQSVYHANWLSWFQQKPGQPPKLLIYWASTLAYGVPSRFSGSGSGTDFTLTISSLQPEDAATYYCAGGYGGGRYAFGQGTKVEIKRTVAAPSVFIFPPSDEQLKSGTASVVCLLNNFYPREAKVQWKVDNALQSGNSQESVTEQDSKDSTYSLSSTLTLSKADYEKHKVYACEVTHQGLSSPVTKSFNRGEC
notes: Fc variant of M103205H795-SG1, expressed with M103202L889-SK1 as light chain
B2: M103205H795-MY440 / M103202L889-SK1 (antibody, human IgG1, kappa)
heavy: B1 heavy with L237W, V241S, T328K
light: B1 light
notes: as for B1
B3: M103205H795-MY288 / M103202L889-SK1 (antibody, human IgG1, kappa)
heavy: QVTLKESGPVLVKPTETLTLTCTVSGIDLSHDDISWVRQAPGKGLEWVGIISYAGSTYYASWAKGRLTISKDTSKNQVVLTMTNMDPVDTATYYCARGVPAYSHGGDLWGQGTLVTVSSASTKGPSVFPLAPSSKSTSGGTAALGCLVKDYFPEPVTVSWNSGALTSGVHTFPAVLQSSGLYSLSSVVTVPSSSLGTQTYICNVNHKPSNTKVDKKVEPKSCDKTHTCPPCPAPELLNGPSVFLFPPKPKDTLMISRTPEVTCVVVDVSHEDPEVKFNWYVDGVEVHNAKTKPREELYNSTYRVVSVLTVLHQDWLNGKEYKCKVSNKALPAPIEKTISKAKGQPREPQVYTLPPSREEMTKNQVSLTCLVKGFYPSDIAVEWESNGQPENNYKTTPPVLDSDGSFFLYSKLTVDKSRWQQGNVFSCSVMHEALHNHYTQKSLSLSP
light: B1 light
notes: as for B1
B4: M103205H795-MY538 (Table 19; L235W/G236N/H268D/Q295L/K326T/A330K) / M103202L889-SK1 (antibody, human IgG1, kappa)
heavy: B1 heavy with L237W, V241S
light: B1 light
notes: Fc variant of M103205H795-SG1, expressed with M103202L889-SK1; the text names MY518 for this set of substitutions; also called probably MY518 of the text
B5: M103205H795-MY434 / M103202L889-SK1 (antibody, human IgG1, kappa)
heavy: B1 heavy with L237W, V241S, L297Q, T328K
light: B1 light
notes: as for B1
B6: M103205H795-MY289 / M103202L889-SK1 (antibody, human IgG1, kappa)
heavy: B1 heavy with V241S, D270H, L297Q, T328K, P398M
light: B1 light
notes: as for B1
B7: M103205H795-MY330 / M103202L889-SK1 (antibody, human IgG1, kappa)
heavy: B1 heavy with L237W, V241S, D270E, L297Q, T328K, P398M
light: B1 light
notes: as for B1

Target: T1, cynomolgus monkey FcγRIIa2 …
Test: SPR (Biacore); KD of SG1 divided by KD of the variant for this FcgR;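 also: relative to parent M103205H795-SG1 carrying the SG1 human heavy chain constant region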
Procedure: (§1) Regarding such interactions, KD values were calculated using the following 1:1 binding model described in BIACORE® T100 Software Handbook BR1006-48 Edition AE.
(§2) The behavior of interacting molecules according to the 1:1 binding model on BIACORE® can be described by Equation 1: Req=C·R max/(KD+C)+RI, wherein, Req is a plot of steady-state binding levels to analyte concentration. C is concentration, RI is bulk refractive index contribution in the sample, and Rmax is analyte binding capacity of the surface. When this equation is rearranged, KD can be expressed as Equation 2: KD=C·Rmax/(Req−RI)−C. KD can be calculated by substituting the values of Rmax, RI, and C into Equation 1 or Equation 2. From the current measurement conditions, RI=0, C=2 μmol/L can be used.
(§3) The variants were expressed using M103202L889-SK1 as the light chain and their affinity was analyzed.

| KD fold (SG1 = 1) [fold] | Binder |
| --- | --- |
| 9.6 | B1 |
| 2.8 | B2 |
| 2.6 | B3 |
| 5.7 | B4 |
| 2.1 | B5 |
| 3.4 | B6 |
| 2.3 | B7 |

Target: T2, human FcγRIIb extracellular domain with …
Test: as above
Procedure: as §1, §2, §3

| KD fold (SG1 = 1) [fold] | Binder |
| --- | --- |
| 7.3 | B1 |
| 5.8 | B2 |
| 0.9 | B3 |
| 9.6 | B4 |
| 3.3 | B5 |
| 1.6 | B6 |
| 6.9 | B7 |

Target: T3, human FcγRIIaH extracellular domain …
Test: as above
Procedure: as §1, §2, §3

| KD fold (SG1 = 1) [fold] | Binder |
| --- | --- |
| 0.9 | B1 |
| 0.8 | B2 |
| 0.5 | B3 |
| 0.8 | B4 |
| 0.4 | B5 |
| 0.3 | B6 |
| 0.7 | B7 |

Target: T4, human FcγRIIaR extracellular domain …
Test: as above
Procedure: as §1, §2, §3

| KD fold (SG1 = 1) [fold] | Binder |
| --- | --- |
| 0.8 | B1 |
| 1 | B2 |
| 0.1 | B3 |
| 1.6 | B4 |
| 0.6 | B5 |
| 0.8 | B6 |
| 1.2 | B7 |

Target: T5, cynomolgus monkey FcγRIIIaS …
Test: as above
Procedure: as §1, §2, §3

| KD fold (SG1 = 1) [fold] | Binder |
| --- | --- |
| 0.14 | B1 |
| 0.04 | B2 |
| 0.08 | B3 |
| 0.09 | B4 |
| 0.03 | B5 |
| 0.07 | B6 |
| 0.05 | B7 |

Target: T6, cynomolgus monkey FcγRIIb extracellular …
Test: as above
Procedure: as §1, §2, §3

| KD fold (SG1 = 1) [fold] | Binder |
| --- | --- |
| 4.9 | B1 |
| 5.9 | B2 |
| 3.5 | B3 |
| 6.9 | B4 |
| 2.4 | B5 |
| 2.4 | B6 |
| 3 | B7 |

Target: T9, human FcγRIIIaV extracellular domain with C-terminal His-tag (human, UniProt P08637 17-208)
T9 construct: Expressed in FreeStyle 293 cells and purified; also called FcgRIIIaV; not shown: C-terminal His-tag
Test: as above
Procedure: as §1, §2, §3

T9 sequence (P08637 17-208 F176V): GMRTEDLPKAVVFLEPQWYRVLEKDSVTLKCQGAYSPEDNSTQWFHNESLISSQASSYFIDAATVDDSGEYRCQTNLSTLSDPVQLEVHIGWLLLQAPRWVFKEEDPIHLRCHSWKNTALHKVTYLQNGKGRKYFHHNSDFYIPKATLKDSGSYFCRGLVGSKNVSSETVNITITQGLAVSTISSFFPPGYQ

| KD fold (SG1 = 1) [fold] | Binder |
| --- | --- |
| 0.12 | B1 |
| 0.05 | B2 |
| 0.01 | B3 |
| 0.04 | B4 |
| 0.05 | B5 |
| 0.11 | B6 |
| 0.07 | B7 |

Target: T7, cynomolgus monkey FcγRIIa3 …
Test: as above
Procedure: as §1, §2, §3

| KD fold (SG1 = 1) [fold] | Binder |
| --- | --- |
| 5.9 | B1 |
| 3.5 | B2 |
| 3.6 | B3 |
| 7.1 | B4 |
| 2.7 | B5 |
| 2 | B6 |
| 3.6 | B7 |

Target: T8, cynomolgus monkey FcγRIIa1 …
Test: as above
Procedure: as §1, §2, §3

| KD fold (SG1 = 1) [fold] | Binder |
| --- | --- |
| 5.7 | B1 |
| 2 | B2 |
| 2.1 | B3 |
| 3.6 | B4 |
| 1.1 | B5 |
| 2.5 | B6 |
| 1.5 | B7 |
